Reference: paper PMC5896956, “Small molecule induced oligomerization, clustering and clathrin-independent endocytosis of the dopamine transporter” (eLife, 2018)

Target: the molecule itself
Assay: SDS-resistant oligomers on SDS-PAGE and western blot; PAE cells stably expressing the tagged transporter, vehicle (DMSO) or 20 µM AIM-100 for 2 hr at 37°C (also after cocaine, dopamine, amphetamine, modafinil, KRCA-0008, CHC siRNA, at 4°C or 20°C); lysis in TGH buffer, Laemmli buffer (2% SDS, 5% β-mercaptoethanol) 5 min at 95°C, 7.5% SDS-PAGE, blot with GFP antibody; oligomers (O) against monomers (M)

B1: YFP-DAT additionally tagged with an extracellular hemagglutinin (HA) epitope (YFP-HA-DAT) (natural protein, human, UniProt Q01959 1-620, looked up)
chain: MSKSKCSVGLMSSVVAPAKEPNAVGPKEVELILVKEQNGVQLTSSTLTNPRQSPVEAQDRETWGKKIDFLLSVIGFAVDLANVWRFPYLCYKNGGGAFLVPYLLFMVIAGMPLFYMELALGQFNREGAAGVWKICPILKGVGFTVILISLYVGFFYNVIIAWALHYLFSSFTTELPWIHCNNSWNSPNCSDAHPGDSSGDSSGLNDTFGTTPAAEYFERGVLHLHQSHGIDDLGPPRWQLTACLVLVIVLLYFSLWKGVKTSGKVVWITATMPYVVLTALLLRGVTLPGAIDGIRAYLSVDFYRLCEASVWIDAATQVCFSLGVGFGVLIAFSSYNKFTNNCYRDAIVTTSINSLTSFSSGFVVFSFLGYMAQKHSVPIGDVAKDGPGLIFIIYPEAIATLPLSSAWAVVFFIMLLTLGIDSAMGGMESVITGLIDEFQLLHRHRELFTLFIVLATFLLSLFCVTNGGIYVFTLLDHFAAGTSILFGVLIEAIGVAWFYGVGQFSDDIQQMTGQRPSLYWRLCWKLVSPCFLLFVVVVSIVTFRPPHYGAYIFPDWANALGWVIATSSMAMVPIYAAYKFCSLPGSFREKLAYAIAPEKDRELVDRGEVRQFTLRHWLKV
notes: Dopamine transporter (DAT), human; Monomer runs at 95 kDa, SDS-resistant oligomer at about 290 kDa; also called dopamine transporter; human DAT; source: PAE cells, stably expressed, in lysate
**Q.** How did the “fold increase of the fraction of the ~290 kDa oligomer species with AIM-100 against vehicle” value turn out when B1 was run?
**A.** Its value is over 5 fold.

**Q.** And the “stoichiometry N” value?
**A.** The value was about 3.
